Assays:
[1] = molecular target: EncFtnsH H65A mutant (Rhodospirillum rubrum) (UniProt Q2RVS1); test: native MS; nESI, 100 mM ammonium acetate pH 8.0, about 5 uM protein; apo protein made in minimal medium, no Fe2+ added
[2] = molecular target: EncFtnsH H65A mutant (Rhodospirillum rubrum) (UniProt Q2RVS1); test: crystal structure; hanging drop, 292 K, 0.14 M calcium acetate, 15% PEG 3350; cryoprotectant with 1 mM FeSO4; three decamers in the asymmetric unit; mutants crystallized in the same manner
[3] = molecular target: the molecule itself; test: SEC; preparative Superdex 200 16/60 after nickel affinity; 50 mM Tris-HCl pH 8.0, 150 mM NaCl; protein from E. coli grown in SeMet medium + 1 mM Fe(NH4)2(SO4)2, in MM, or in MM + 1 mM Fe(NH4)2(SO4)2
[4] = molecular target: the molecule itself; test: SEC; analytical gel filtration of EncFtnsH monomer at 700 uM, compared with 90 uM; no metal added
[5] = molecular target: the molecule itself; test: SEC; preparative Superdex 200 16/60 after nickel affinity; 50 mM Tris-HCl pH 8.0, 150 mM NaCl; protein from E. coli grown in SeMet medium + 1 mM Fe(NH4)2(SO4)2, in MM, or in MM + 1 mM Fe(NH4)2(SO4)2; remark: listed apart in the source
Q2RVS1 = test: SEC; analytical gel filtration, Superdex 200 PC 3.2/30 (Table 3 caption: 10/300 GL), 15 C, GF buffer; 90 uM EncFtnsH monomer or decamer fractions, alone or after 2 h at room temperature with one molar equivalent of metal salt
[6] = molecular target: the molecule itself; test: SEC; size-exclusion chromatography of the purified full-length EncFtn; column and buffer not told for this protein

“EncFtnsH H65A mutant (from UniProt Q2RVS1 1-96) (domain or fragment)” gave a stoichiometry N [1] of 2 and a stoichiometry N [2] of 10.

B1: EncFtnsH: truncated C-terminal hexahistidine-tagged variant of Rhodospirillum rubrum encapsulated ferritin (EncFtn, Rru_A0973), amino acids 1-96 plus the tag (domain or fragment, UniProt Q2RVS1 1-96, looked up)
chain: MAQSSNSTHEPLEVLKEETVNRHRAIVSVMEELEAVDWYDQRVDASTDPELTAILAHNRDEEKEHAAMTLEWLRRNDAKWAEHLRTYLFTEGPITA
notes: amino acids 1-96 of the 140-residue protein; Monomer predicted mass 13,194.53 Da with the tag; also called wild-type EncFtnsH; WT; source: for crystals anion exchange and SEC; not shown: His6, C-terminal, kept
In the case of B1, the “decamer/monomer peak area ratio (cells grown in MM + 1 mM Fe(NH4)2(SO4)2)” value [3] is reported as 4.5, the “stoichiometry N” value [4] is reported as 2 and the “stoichiometry N” value [5] is reported as 10. The decamer/monomer peak area ratio (decamer fractions, no metal added, day 1) (Q2RVS1) was 11.2, the decamer/monomer peak area ratio (monomer fractions, no metal added, day 1) (Q2RVS1) was 0.1 and the decamer/monomer peak area ratio (monomer fractions, no metal added, day 2) (Q2RVS1) was 0.4. For the same molecule, the decamer/monomer peak area ratio (monomer fractions, no metal added, day 3) (Q2RVS1) was 0.3, the decamer/monomer peak area ratio (with Ca acetate) (Q2RVS1) was 0.2 and the decamer/monomer peak area ratio (with CoCl2) (Q2RVS1) was 1.2. For the same molecule, the decamer/monomer peak area ratio (with Fe(NH4)2(SO4)2) (Q2RVS1) was 0.8, the decamer/monomer peak area ratio (with FeCl3) (Q2RVS1) was 0.1 and the decamer/monomer peak area ratio (with FeSO4-HCl) (Q2RVS1) was 1. It also gave a decamer/monomer peak area ratio (with MgSO4) (Q2RVS1) of 0.2, a decamer/monomer peak area ratio (with MnCl2) (Q2RVS1) of 0.1 and a decamer/monomer peak area ratio (with ZnSO4) (Q2RVS1) of 2.3.

B2: EncFtnsH E32A mutant (domain or fragment, Rhodospirillum rubrum, UniProt Q2RVS1 1-96, looked up)
chain: MAQSSNSTHEPLEVLKEETVNRHRAIVSVMEALEAVDWYDQRVDASTDPELTAILAHNRDEEKEHAAMTLEWLRRNDAKWAEHLRTYLFTEGPITA
notes: amino acids 1-96, with E32A; Single mutant of EncFtnsH; source: E. coli BL21(DE3) grown in MM or MM supplemented with iron; purified (Superdex 200 SEC); not shown: His6, C-terminal, kept
In the case of B2, the “stoichiometry N” value [5] is reported as 10.

B3: EncFtnsH E62A mutant (domain or fragment, Rhodospirillum rubrum, UniProt Q2RVS1 1-96, looked up)
chain: MAQSSNSTHEPLEVLKEETVNRHRAIVSVMEELEAVDWYDQRVDASTDPELTAILAHNRDEAKEHAAMTLEWLRRNDAKWAEHLRTYLFTEGPITA
notes: amino acids 1-96, with E62A; Single mutant of EncFtnsH; source: E. coli BL21(DE3) grown in MM or MM supplemented with iron; purified (Superdex 200 SEC); not shown: His6, C-terminal, kept
With B3 the “stoichiometry N” value [5] was 10.

B4: Rhodospirillum rubrum EncFtn, full-length sequence (140 amino acids), purified alone (natural protein, UniProt Q2RVS1 1-140, looked up)
chain: MAQSSNSTHEPLEVLKEETVNRHRAIVSVMEELEAVDWYDQRVDASTDPELTAILAHNRDEEKEHAAMTLEWLRRNDAKWAEHLRTYLFTEGPITAIEAADTAGEGSGGDAAKGATAQGDGSLGIGSLKGEAALARPPRL
notes: primers are in Supplementary file 2; also called encapsulated ferritin; source: E. coli, recombinant, purified (SEC)
B4: binds [6].
